Data published in article PMC12575849, “Condensation-dependent interactome of a chromatin remodeler underlies tumor suppressor activities” (Nature Communications, 2025).

Molecular target: unmodified nucleosome (recombinant human histone octamer on Widom 601 DNA) (human, UniProt P04908 1-130; O60814 1-126; P68431 1-136; P62805 1-103)
Assay: native gel or EMSA; purified CHD1 titrated against 5 nM IR dye-conjugated nucleosome in EMSA buffer (10 mM HEPES pH 8.0, 75 mM NaCl, 5 mM MgCl2, 10% glycerol, 1 mM DTT, 0.1 mg/ml BSA), 30 min at 30 °C, native PAGE; shifted fraction fitted to a dose-response curve
Conditions: both partners purified

Kd: 6.3 nM
B1: recombinant CHD1^ΔNC protein (domain or fragment)
chain: EEEFETIERFMDCRIGRKGATGATTTIYAVEADGDPNAGFEKNKEPGEIQYLIKWKGWSHIHNTWETEETLKQQNVRGMKKLDNYKKKDQETKRWLKNASPEDVEYYNCQQELTDDLHKQYQIVERIIAHSNQKSAAGYPDYYCKWQGLPYSECSWEDGALISKKFQACIDEYFSRNQSKTTPFKDCKVLKQRPRFVALKKQPSYIGGHEGLELRDYQLNGLNWLAHSWCKGNSCILADEMGLGKTIQTISFLNYLFHEHQLYGPFLLVVPLSTLTSWQREIQTWASQMNAVVYLGDINSRNMIRTHEWTHHQTKRLKFNILLTTYEILLKDKAFLGGLNWAFIGVDEAHRLKNDDSLLYKTLIDFKSNHRLLITGTPLQNSLKELWSLLHFIMPEKFSSWEDFEEEHGKGREYGYASLHKELEPFLLRRVKKDVEKSLPAKVEQILRMEMSALQKQYYKWILTRNYKALSKGSKGSTSGFLNIMMELKKCCNHCYLIKPPDNNEFYNKQEALQHLIRSSGKLILLDKLLIRLRERGNRVLIFSQMVRMLDILAEYLKYRQFPFQRLDGSIKGELRKQALDHFNAEGSEDFCFLLSTRAGGLGINLASADTVVIFDSDWNPQNDLQAQARAHRIGQKKQVNIYRLVTKGSVEEDILERAKKKMVLDHLVIQRMDTTGKTVLHTGSAPSSSTPFNKEELSAILKFGAEELFKEPEGEEQEPQEMDIDEILKRAETHENEPGPLTVGDELLSQFKVANFSNMDEDDIELEPERNSKNWEEIIPEDQRRRLEEEERQKELEEIYMLPRMRNCAKQISFNGSEGRRSRSRRYSGSDSDSISEGKRPKKRGRPRTIPRENIKGFSDAEIRRFIKSYKKFGGPLERLDAIARDAELVDKSETDLRRLGELVHNGCIKALKDSSSGTERTGGRLGKVKGPTFRISGVQVNAKLVISHEEELIPLHKSIPSDPEERKQYTIPCHTKAAHFDIDWGKEDDSNLLIGIYEYGYGSWEMIKMDPDLSLTHKILPDDPDKKPQAKQLQTRADYLIKLLSRDLAKKEALSGAGSSKRRKARAKKNKA
